# Publication PMC2756588
# T1: Cyk3, Q07533
# T1 sequence (Q07533 1-83, looked up): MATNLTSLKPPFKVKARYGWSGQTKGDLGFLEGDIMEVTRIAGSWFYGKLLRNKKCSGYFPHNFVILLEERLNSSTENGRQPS
# T2: Abp1, P15891
# T2 sequence (P15891 535-592, looked up): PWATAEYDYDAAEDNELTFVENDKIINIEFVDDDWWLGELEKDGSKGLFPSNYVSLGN
# T3: Boi1, P38041
# T3 sequence (P38041 1-86, looked up): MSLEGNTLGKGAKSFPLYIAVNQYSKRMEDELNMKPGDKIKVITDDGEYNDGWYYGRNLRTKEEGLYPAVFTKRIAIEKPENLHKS
# T4: Pin3, Q06449
# T4 sequence (Q06449 53-122, looked up): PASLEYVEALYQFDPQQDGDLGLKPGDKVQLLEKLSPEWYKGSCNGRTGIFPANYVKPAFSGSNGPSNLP
# T5: Nbp2, Q12163
# T5 sequence (Q12163 103-180, looked up): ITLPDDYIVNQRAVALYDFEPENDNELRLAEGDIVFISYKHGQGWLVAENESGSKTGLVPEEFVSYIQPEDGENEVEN
# T6: Sla1-2, P32790
# T6 sequence (P32790 60-140, looked up): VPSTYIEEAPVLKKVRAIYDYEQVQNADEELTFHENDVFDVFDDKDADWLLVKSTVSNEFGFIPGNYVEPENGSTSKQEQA
# T7: Hse1, P38753
# T7 sequence (P38753 208-285, looked up): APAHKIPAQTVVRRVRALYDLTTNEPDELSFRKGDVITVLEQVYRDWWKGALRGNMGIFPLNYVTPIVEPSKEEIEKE
# T8: Bud14, P27637
# T8 sequence (P27637 247-328, looked up): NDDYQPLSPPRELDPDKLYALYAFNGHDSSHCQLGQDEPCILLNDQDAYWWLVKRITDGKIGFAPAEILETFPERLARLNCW
# T9: Fus1, P11710
# T9 sequence (P11710 432-512, looked up): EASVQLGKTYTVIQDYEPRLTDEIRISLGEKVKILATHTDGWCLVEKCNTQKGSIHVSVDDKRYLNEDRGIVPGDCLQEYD
# T10: Lsb3, P43603
# T10 sequence (P43603 385-451, looked up): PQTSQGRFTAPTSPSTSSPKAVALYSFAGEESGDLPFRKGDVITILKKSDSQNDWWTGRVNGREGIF
# T11: Bzz1-2, P38822
# T11 sequence (P38822 568-633, looked up): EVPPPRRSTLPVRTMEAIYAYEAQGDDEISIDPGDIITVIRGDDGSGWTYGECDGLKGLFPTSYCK
# T12: Lsb1, P53281
# T12 sequence (P53281 45-122, looked up): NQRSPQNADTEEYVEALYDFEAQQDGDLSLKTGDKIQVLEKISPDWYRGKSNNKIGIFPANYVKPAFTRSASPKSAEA
# T13: Sla1-3, P32790
# T13 sequence (P32790 344-424, looked up): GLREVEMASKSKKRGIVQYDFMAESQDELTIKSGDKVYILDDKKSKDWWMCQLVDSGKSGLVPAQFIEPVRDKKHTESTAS
# T14: Pex13, P80667
# T14 sequence (P80667 295-386, looked up): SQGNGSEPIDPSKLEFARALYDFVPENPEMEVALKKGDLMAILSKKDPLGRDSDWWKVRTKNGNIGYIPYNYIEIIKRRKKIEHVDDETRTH
# T15: Bbc1, P47068
# T15 sequence (P47068 1-78, looked up): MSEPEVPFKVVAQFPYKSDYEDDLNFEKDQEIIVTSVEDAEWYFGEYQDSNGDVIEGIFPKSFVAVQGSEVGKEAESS
# T16: Boi2, P39969
# T16 sequence (P39969 32-116, looked up): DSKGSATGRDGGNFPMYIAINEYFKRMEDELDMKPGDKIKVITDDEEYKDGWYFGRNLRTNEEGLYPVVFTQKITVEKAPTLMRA
# T17: Lsb4, P32793
# T17 sequence (P32793 402-468, looked up): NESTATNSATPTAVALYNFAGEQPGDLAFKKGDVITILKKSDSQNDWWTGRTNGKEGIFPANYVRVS
# T18: Hof1, Q05080
# T18 sequence (Q05080 590-669, looked up): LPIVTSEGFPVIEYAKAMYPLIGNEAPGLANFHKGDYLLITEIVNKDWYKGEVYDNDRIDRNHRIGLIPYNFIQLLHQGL
# T19: Myo5, Q04439
# T19 sequence (Q04439 1072-1160, looked up): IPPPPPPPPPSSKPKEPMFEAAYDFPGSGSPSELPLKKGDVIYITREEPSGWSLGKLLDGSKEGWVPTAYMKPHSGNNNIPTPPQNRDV
# T20: Cdc25, P04821
# T20 sequence (P04821 50-136, looked up): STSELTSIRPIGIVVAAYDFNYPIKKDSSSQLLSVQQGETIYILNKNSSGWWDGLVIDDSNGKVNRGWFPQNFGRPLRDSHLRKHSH
# T21: Bzz1-1, P38822
# T21 sequence (P38822 478-572, looked up): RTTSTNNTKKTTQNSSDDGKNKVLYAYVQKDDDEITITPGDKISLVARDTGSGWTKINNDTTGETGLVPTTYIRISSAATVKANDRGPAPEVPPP
# Experiments:
# Assay in all cases: SPOT array
# Cyk3, Q07533 = molecular target: T1, Cyk3, Q07533; settings: median of control spots 1451
# Abp1, P15891 = molecular target: T2, Abp1, P15891; settings: median of control spots 935
# Boi1, P38041 = molecular target: T3, Boi1, P38041; settings: median of control spots 1162
# Pin3, Q06449 = molecular target: T4, Pin3, Q06449; settings: median of control spots 2171
# Nbp2, Q12163 = molecular target: T5, Nbp2, Q12163; settings: median of control spots 357
# Bem1-2, P29366 = settings: median of control spots 4347
# Bem1-2, P29366, sequence (P29366 139-227): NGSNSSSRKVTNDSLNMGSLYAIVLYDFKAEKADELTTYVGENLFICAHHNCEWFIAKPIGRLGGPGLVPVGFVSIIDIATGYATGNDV
# Sla1-2, P32790 = molecular target: T6, Sla1-2, P32790; settings: median of control spots 712
# GST = settings: median of control spots 978
# Hse1, P38753 = molecular target: T7, Hse1, P38753; settings: median of control spots 1727
# Bud14, P27637 = molecular target: T8, Bud14, P27637; settings: median of control spots 956
# Fus1, P11710 = molecular target: T9, Fus1, P11710; settings: median of control spots 1200
# Myo3, P36006 = settings: median of control spots 468
# Lsb3, P43603 = molecular target: T10, Lsb3, P43603; settings: median of control spots 406
# Bzz1-2, P38822 = molecular target: T11, Bzz1-2, P38822; settings: median of control spots 4538
# Sho1, P40073 = settings: median of control spots 1148
# Sho1, P40073, sequence (P40073 287-367): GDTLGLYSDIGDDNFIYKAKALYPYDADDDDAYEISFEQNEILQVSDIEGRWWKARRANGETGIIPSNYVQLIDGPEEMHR
# Lsb1, P53281 = molecular target: T12, Lsb1, P53281; settings: median of control spots 388
# Sla1-3, P32790 = molecular target: T13, Sla1-3, P32790; settings: median of control spots 5475
# Pex13, P80667 = molecular target: T14, Pex13, P80667; settings: median of control spots 1341
# Bbc1, P47068 = molecular target: T15, Bbc1, P47068; settings: median of control spots 796
# Boi2, P39969 = molecular target: T16, Boi2, P39969; settings: median of control spots 1161
# Bem1-1, P29366 = settings: median of control spots 4282
# Bem1-1, P29366, sequence (P29366 55-141): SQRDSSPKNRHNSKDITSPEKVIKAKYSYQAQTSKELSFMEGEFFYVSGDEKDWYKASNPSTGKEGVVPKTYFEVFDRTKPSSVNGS
# Lsb4, P32793 = molecular target: T17, Lsb4, P32793; settings: median of control spots 397
# Hof1, Q05080 = molecular target: T18, Hof1, Q05080; settings: median of control spots 4086
# Myo5, Q04439 = molecular target: T19, Myo5, Q04439; settings: median of control spots 471
# Cdc25, P04821 = molecular target: T20, Cdc25, P04821; settings: median of control spots 969
# Rvs167, P39743 = settings: median of control spots 2707
# Rvs167, P39743, sequence (P39743 419-482): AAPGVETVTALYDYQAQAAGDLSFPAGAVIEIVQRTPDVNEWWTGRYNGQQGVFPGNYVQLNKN
# Bzz1-1, P38822 = molecular target: T21, Bzz1-1, P38822; settings: median of control spots 4446
Binder,"SPOT intensity (Cyk3, Q07533)","SPOT intensity (Abp1, P15891)","SPOT intensity (Boi1, P38041)","SPOT intensity (Pin3, Q06449)","SPOT intensity (Nbp2, Q12163)","SPOT intensity (Bem1-2, P29366)","SPOT intensity (Sla1-2, P32790)",SPOT intensity (GST),"SPOT intensity (Hse1, P38753)","SPOT intensity (Bud14, P27637)","SPOT intensity (Fus1, P11710)","SPOT intensity (Myo3, P36006)","SPOT intensity (Lsb3, P43603)","SPOT intensity (Bzz1-2, P38822)","SPOT intensity (Sho1, P40073)","SPOT intensity (Lsb1, P53281)","SPOT intensity (Sla1-3, P32790)","SPOT intensity (Pex13, P80667)","SPOT intensity (Bbc1, P47068)","SPOT intensity (Boi2, P39969)",further results
MPAPPPPPPPPPGAF,0,0,0,1,0,0,0,0,0,0,0,163,0,1,0,0,2,0,0,0,"SPOT intensity (Bem1-1, P29366): 0; SPOT intensity (Lsb4, P32793): 0; SPOT intensity (Hof1, Q05080): 0; SPOT intensity (Myo5, Q04439): 49; SPOT intensity (Cdc25, P04821): 0; SPOT intensity (Rvs167, P39743): 0; SPOT intensity (Bzz1-1, P38822): 0"
VPKEPAPAPPPEPDM,1,0,0,17,0,0,0,0,3,0,1,149,0,0,0,0,0,4,0,0,"SPOT intensity (Bem1-1, P29366): 0; SPOT intensity (Lsb4, P32793): 0; SPOT intensity (Hof1, Q05080): 0; SPOT intensity (Myo5, Q04439): 93; SPOT intensity (Cdc25, P04821): 0; SPOT intensity (Rvs167, P39743): 0; SPOT intensity (Bzz1-1, P38822): 0"
HAPPLPPTAPPPPSL,0,0,0,0,0,0,0,0,0,0,0,465,0,0,0,0,0,0,0,0,"SPOT intensity (Bem1-1, P29366): 0; SPOT intensity (Lsb4, P32793): 0; SPOT intensity (Hof1, Q05080): 11; SPOT intensity (Myo5, Q04439): 279; SPOT intensity (Cdc25, P04821): 0; SPOT intensity (Rvs167, P39743): 0; SPOT intensity (Bzz1-1, P38822): 0"
QPPLPSSAPPIPTSH,0,0,0,0,0,1,0,0,0,0,0,334,0,0,0,0,0,0,0,0,"SPOT intensity (Bem1-1, P29366): 0; SPOT intensity (Lsb4, P32793): 0; SPOT intensity (Hof1, Q05080): 0; SPOT intensity (Myo5, Q04439): 242; SPOT intensity (Cdc25, P04821): 0; SPOT intensity (Rvs167, P39743): 0; SPOT intensity (Bzz1-1, P38822): 0"
GDHPKGPPPPPPPDE,0,0,4,2,0,3,0,0,0,1,0,371,0,0,0,0,2,0,1,1,"SPOT intensity (Bem1-1, P29366): 0; SPOT intensity (Lsb4, P32793): 0; SPOT intensity (Hof1, Q05080): 0; SPOT intensity (Myo5, Q04439): 227; SPOT intensity (Cdc25, P04821): 3; SPOT intensity (Rvs167, P39743): 0; SPOT intensity (Bzz1-1, P38822): 1"
PPIPIVPSSPAPPLP,0,0,0,0,0,0,0,0,0,0,0,425,0,0,0,0,0,0,0,0,"SPOT intensity (Bem1-1, P29366): 0; SPOT intensity (Lsb4, P32793): 0; SPOT intensity (Hof1, Q05080): 0; SPOT intensity (Myo5, Q04439): 318; SPOT intensity (Cdc25, P04821): 0; SPOT intensity (Rvs167, P39743): 0; SPOT intensity (Bzz1-1, P38822): 0"
